From PMC5771398, “Structural basis for assembly of the CBF3 kinetochore complex” (The EMBO Journal, 2017)

Molecular target: T1, Cep3-Ctf13-Skp1 core complex (S. cerevisiae, UniProt P40969 1-608; P35203 1-478; P52286 1-194, four phosphorylations (intact mass spectrometry); sites not given)
T1 construct: Cep3, budding yeast, full length; Ctf13, budding yeast, full length; Skp1, budding yeast, full length; Core complex as it stood in size-exclusion chromatography with Ndc10 or the Ndc10 NTD (tag cleaved); also called CBF3 core complex; coreWT; source: S. cerevisiae, co-expressed, purified (Strep-Trap, heparin, TEV, anion exchange, SEC); not shown: double-StrepTactin tag, C-terminal, cleaved; …
Assay: SEC; Superose 6 in 10 mM HEPES, 300 mM NaCl, 1 mM DTT; core and Ndc10 separated on heparin and combined, tag cleaved; stoichiometry judged by band intensities on SDS-PAGE/Coomassie
Details: both partners purified

T1 sequence (P40969 whole entry, chain 1 of 3): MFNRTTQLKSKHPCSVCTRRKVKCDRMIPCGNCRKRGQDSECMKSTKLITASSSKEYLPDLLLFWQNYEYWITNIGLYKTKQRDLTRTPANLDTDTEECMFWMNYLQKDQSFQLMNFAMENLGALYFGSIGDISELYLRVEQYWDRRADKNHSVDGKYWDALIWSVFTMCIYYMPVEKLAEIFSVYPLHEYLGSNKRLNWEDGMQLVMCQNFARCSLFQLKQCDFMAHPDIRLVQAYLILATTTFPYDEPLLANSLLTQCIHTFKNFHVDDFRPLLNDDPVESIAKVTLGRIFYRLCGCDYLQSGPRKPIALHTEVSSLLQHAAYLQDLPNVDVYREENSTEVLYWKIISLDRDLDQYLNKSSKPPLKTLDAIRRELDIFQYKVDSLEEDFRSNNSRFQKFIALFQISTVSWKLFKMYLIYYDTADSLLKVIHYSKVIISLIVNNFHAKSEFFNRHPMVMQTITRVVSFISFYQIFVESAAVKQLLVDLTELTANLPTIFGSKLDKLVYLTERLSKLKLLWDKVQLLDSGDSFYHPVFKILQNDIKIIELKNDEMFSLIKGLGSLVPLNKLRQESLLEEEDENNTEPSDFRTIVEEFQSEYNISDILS
T1 sequence (P35203 whole entry, chain 2 of 3): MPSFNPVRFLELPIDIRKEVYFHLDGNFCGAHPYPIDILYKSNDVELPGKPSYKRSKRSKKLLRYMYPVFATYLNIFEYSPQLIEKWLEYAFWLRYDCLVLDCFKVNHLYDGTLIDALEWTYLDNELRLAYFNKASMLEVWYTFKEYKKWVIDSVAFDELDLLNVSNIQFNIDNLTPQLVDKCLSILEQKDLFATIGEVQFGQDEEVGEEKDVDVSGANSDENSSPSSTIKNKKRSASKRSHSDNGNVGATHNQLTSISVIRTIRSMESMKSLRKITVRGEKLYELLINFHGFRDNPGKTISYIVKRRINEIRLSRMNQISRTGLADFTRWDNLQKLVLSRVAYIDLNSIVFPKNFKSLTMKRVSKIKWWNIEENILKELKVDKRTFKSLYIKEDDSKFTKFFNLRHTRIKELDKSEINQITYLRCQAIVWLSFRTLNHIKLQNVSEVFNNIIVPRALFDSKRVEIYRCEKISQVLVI
T1 sequence (P52286 whole entry, chain 3 of 3): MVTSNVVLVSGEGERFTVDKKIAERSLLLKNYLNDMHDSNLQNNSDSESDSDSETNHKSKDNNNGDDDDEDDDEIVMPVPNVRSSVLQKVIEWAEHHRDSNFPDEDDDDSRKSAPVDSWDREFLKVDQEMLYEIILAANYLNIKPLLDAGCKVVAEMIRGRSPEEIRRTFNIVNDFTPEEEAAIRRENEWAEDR

B1: Ndc10 (natural protein, S. cerevisiae, UniProt P32504 1-956, looked up)
chain: MRSSILFLLKLMKIMDVQQQQEAMSSEDRFQELVDSLKPRTAHQYKTYYTKYIQWCQLNQIIPTPEDNSVNSVPYKDLPISAELIHWFLLDTLITDDKPGEKREETEDLDEEEENSFKIATLKKIIGSLNFLSKLCKVHENPNANIDTKYLESVTKLHTHWIDSQKAITTNETNNTNTQVLCPPLLKVSLNLWNPETNHLSEKFFKTCSEKLRFLVDFQLRSYLNLSFEERSKIRFGSLKLGKRDRDAIIYHKVTHSAEKKDTPGHHQLLALLPQDCPFICPQTTLAAYLYLRFYGIPSVSKGDGFPNLNADENGSLLQDIPILRGKSLTTYPREETFSNYYTTVFRYCHLPYKRREYFNKCNLVYPTWDEDTFRTFFNEENHGNWLEQPEAFAFPDKIPFDFKKIMNFKSPYTSYSTNAKKDPFPPPKDLLVQIFPEIDEYKRHDYEGLSQNSRDFLDLMEVLRERFLSNLPWIYKFFPNHDIFQDPIFGNSDFQSYFNDKTIHSKGSPILSFDILPGFNKIYKNKTNFYSLLIERPSQLTFASSHNPDTHPTQKQESEGPLQMSQLDTTQLNELLKQQSFEYVQFQTLSNFQILLSVFNKIFEKLEMKKSSRGYILHQLNLFKITLDERIKKSKIDDADKFIRDNQPIKKEENIVNEDGPNTSRRTKRPKQIRLLSIADSSDESSTEDSNVFKKDGESIEDGAYGENEDENDSEMQEQLKSMINELINSKISTFLRDQMDQFELKINALLDKILEEKVTRIIEQKLGSHTGKFSTLKRPQLYMTEEHNVGFDMEVPKKLRTSGKYAETVKDNDDHQAMSTTASPSPEQDQEAKSYTDEQEFMLDKSIDSIEGIILEWFTPNAKYANQCVHSMNKSGNKSWRANCEALYKERKSIVEFYIYLVNHESLDRYKAVDICEKLRDQNEGSFSRLAKFLRKWRHDHQNSFDGLLVYLSN
notes: synthetic gene codon-optimised for S. cerevisiae; also called full-length Ndc10; source: S. cerevisiae, co-expressed with the other CBF3 subunits and Sgt1; in lysate (pull-down) and purified (heparin, anion exchange, SEC)
In the case of B1, the “stoichiometry N” value is reported as 2.
